Measured values published in US20160068865.

Columns and labels:
[1] = system: ZFN 17747 (IgM) (synthetic); assay: cell_activity; details: pair 17747/17749, CMV promoter, C6 chromosomes cleaved (about 1% with CAG); 5 of 43 rats modified
[2] = system: ZFN 17749 (IgM) (synthetic); assay: cell_activity; details: pair 17747/17749, CMV promoter, C6 chromosomes cleaved (about 1% with CAG); 5 of 43 rats modified

Sequence	activity [1]	activity [2]
AATTTGGTGGCCATGGGC (double strand) [IgM target of 17747]	3%	
AGACAGGGGGCTCTC (double strand) [IgM target of 17749]		3%
